Our source for the protein production values is a protein production outcome set (Wang et al. 2014).

A short description of the series: label from the status in PepcDB records.
Consider “MTSVMPFAHLLLALLVVFVWGINFIFVKLSLEEFSPLLLCAVRFLLASVPAVFFIKPPAVPFKIIASYGLIMFALQFALLFIGLRVGMTPGVASLLMQVQVFFSMFFAIIFLGEQPQVGQIIGALIAFIGIGVVALHFDHNVSLMGFLCILAAAASWGIGNLITKKIHSVNLIAVIVWSSFVACLPMFILSLVFEGPESFVTAYEHMTWKGILSVLYIVYISTWVGYGVWNWLISRYPVGMVVPFTLLVPVVGILSSVLILGEPFYLWKLVAGLLVISGLCINLLTTRLFVAKTQQPETA”, for which the protein production entry is on record as “failed”. The value for “MTSVTDRSAHSAERSTEHTIDIHTTAGKLAELHKRREESLHPVGEDAVEKVHAKGKLTARERIYALLDEDSFVELDALAKHRSTNFNLGEKRPLGDGVVTGYGTIDGRDVCIFSQDATVFGGSLGEVYGEKIVKVQELAIKTGRPLIGINDGAGARIQEGVVSLGLYSRIFRNNILASGVIPQISLIMGAAAGGHVYSPALTDFVIMVDQTSQMFITGPDVIKTVTGEEVTMEELGGAHTHMAKSGTAHYAASGEQDAFDYVRELLSYLPPNNSTDAPRYQAAAPTGPIEENLTDEDLELDTLIPDSPNQPYDMHEVITRLLDDEFLEIQAGYAQNIVVGFGRIDGRPVGIVANQPTHFAGCLDINASEKAARFVRTCDCFNIPIVMLVDVPGFLPGTDQEYNGIIRRGAKLLYAYGEATVPKITVITRKAYGGAYCVMGSKDMGCDVNLAWPTAQIAVMGASGAVGFVYRQQLAEAAANGEDIDKLRLRLQQEYEDTLVNPYVAAERGYVDAVIPPSHTRGYIGTALRLLERKIAQLPPKKHGNVPL” was “not failed”; that for “MTTANTPVRPKSAIDAVADAYTEKLIELNPSFATTLGLPGHETEYQDYSPAGAAAHAEATRLALEALAGLEPSDDVDAVTLDAMRERLGLELEIHQSGWDAADLNNIASPAQDIRAIFDLMPTDTVEHWEHIAGRAANVPGAIEGYIASLRAAKDDRKVAAARQIRIVIEQTGRYAAEDGFFAKMAADASLGDAPLPAEVQDKLDAGTSAARSAYSALGAFLRDELLPVAPEKDAVGRERYSLASRSFIGAEVDLEETYAWGVQELERLISEQEKVAGQIKPGASIEEAKSILNNDPARQIKGTDALKAWMQELSDRAVSELADVHFDIPDVMKTLECMIAPTDEGGIYYTGPSDDFSRPGRMWWSVPAGEDTFTTWSETTTVFHEGVPGHHLQVATATYRRELLNNWRRNVCWVSGHGEGWALYAEQLMLELGYLKDPGDHMGMLDGQRMRAARVVFDIGVHLELPVPERWGTGTWTPEKGFDFLKANLDISEGQLQFEFTRYLGWPGQAPSYKVGQRLWEQIRAELESREGFDLKSFHSKALNIGSVGLDVLRRALL” was “not failed”; that for “MTTCAPAVPAQLDVAGDLLALLRDTTTEPRPDIQLEALTLAVAADLPVLLWGEPGIGKTAALTQLATALDLPLTTVIASVHEPSDFSGLPVVGDDPAEQGVPMAPPDWAVRLVRAGRGLLFLDELSTAPPAVQAALLRLVLERRIGALRLPPGVRIVAAANPRSSAADGWELSPPLANRFVHLQWTHDQDVVVRGLGGTWPRAALPSLDPGGLDGAVRYARRAVCAFLTARPGLVHRLPSGETRRGGAWPSPRSWEMTLCLIAFATAAGSSREVLSLLVRGTVGDGPGLELMASLDRMDLPDPETLLADPAGAVLPERGDLRQAVLDGVVAAVRKRPEKSRWDSAWALLARAMETGAPDVVVVPATTLATLRQQDWDIPASIERLAGAMSLSRRADRAADRAAARLAGTARTSGLEHHHHHH” was “failed”.

As to “MTTDNPLISIYMPTWNRQQLAIRAIKSVLRQDYRHWEMIIVDDCSSSYQQLQQFVEELNDPRVRYTHNARNTGACAVRNQAIMQAQGHYITGIDDDDEWTPNRLSVFLAHKHQLTTHAFLYANDYVCEGEVYSQPASLPLYPKSPYSRRLFYKRNIIGNQVFTWAWRFKASLFDTELKAAQDYDIFLRMVVEYGEPWKVEEATQILHINHGEMQITSSPKKFSGYFHFYRKHKDKFDRASKKYQLFTLYQIRNKRMTWRTLLTLLSVRNSKRLAAGLRGR”, the protein production result was “failed”.

With “MTTEIKKLDPDTAIDIAYDIFLEMAGENLDPADILLFNLQFEERGGVEFVETADDWEEEIGVLIDPEEYAEVWVGLVNEQDEMDDVFAKFLISHREEDREFHVIWKK”, the protein production entry is listed as “not failed”. In the case of “MTTFDAKKLKKEYLDWYNQILEFSNLSNNSVKIDTPFKDNSLDNLKIYALYDQSRDMITLTDDGYTIFGLENNGVSINKFKKRKKIFEEHLSAYGIKYNDKTHEIFVQTNFKNFNKSKHNLLQCLIFVNDMYLLSNPKSQNIFTEDVANKLDEHNIYYGRDIPIIGSSGVVHNFDFFISAKKNQKEKFINVFSNPNNSMIIKSKITDAMQAKKIKRHRQNEFIFILNDSKKEINEHNKNLLHENYISTIDYSELDEKIGLLI” it was “failed”. In the case of “MTTGPALSSSEEGLMSEMPPAWCHTARADHSTPGTSPEMIPDTQGHWMPLRSRGLGALPGAFQAPQPLLSRLRHRLAPPRIVGTVSCRRLRTIVALGAARDSCTVGTQGRPGNSDLPAFPTSQVVRGKMGPGSQRTLVLLLLLLASPGARAFQSCLNKQQLLTTVRQLQQLLKGQETRFTEGIRNMKSRLTALQNTVSKMTPDAPPVSCPALDAPPNGKKFGSKYLVDHEVHFTCNPGFQLVGPSSVVCLANGTWTGEQPRCRDTSECSSQPCHNGGTCVEGVHHYRCICPPGKTGNRCQHQTQAAAPGGVAGDSAYSRAPRCAQVEREQHCSCEAGFHLSGTAGGHSVCQDVNECEIYGQEGRPRLCMHACVNTPGSYRCTCPSGYRILADGKSCEDVDECAGPQHMCPRGTTCINTGGGFQCVNPECPEGSGNISYVKTSPFQCERNPCPMDSRPCRHLPKTISFHYLSLPSNLKTPITLFRMATASVPGHPGPNSLRFGIVGGNSRGHFVMQRSDRQTGELILIQTLEGPQTLEVEVDMSEYLERSFQASHVSKVTIFVSRYDF” it was “failed”; in that of “MTTIFPPIPDRLRPLLRIAFMCGILATLPILCDVYAADEPPAARDEARPEEAAEPAATSAPAPAEQPVTFAITTILVERNTLFASDRLQEVMAPFVGDGKTADDVEKAREALEKFHHDQGYPTVIVNIPEQSVEEGIIRLQVVEQRINTVTVTGNRYFSREMILGKFPSLQPGGIPHVPTLQAEFTKAGRNPDLKITPAMAPSREVGYVDVELKIEEKLPLHGSLELNNRSSHDTSALRLNGAIRYDNLWQREHSVGLQYQTAPEKTREVQILSGSYVLPDPWHDDRRIVFYGVWSDTNTFASLGDMQVLGKGIIVGGRYLIPLAGKGLYNHSATLGIDYKRFDESAGFKTRVSYLPLSTAYDASLQDSTGYTLFNAGLNFAFRGAVTDQSEMAVKRSEAKGNYLAAILGLERQQKLPLGMGLRARIDGQLSSEPLIPNEQFVAGGMDSVRGYKESEALGDNGFHGTVELRVPDITLGSAMSMTPYVFYDMAAVELKKPLPGENRSQTLQGTGAGVRGMLFKFLEYQVDFAVALSDSDRIKEGDQRVHFRVSCAF”, “failed”; in that of “MTTIRRFSCNDLLRFTSVNLDHLTETFNMSFYMTYLARWPDYFHVAEGPGNRVMGYIMGKVEGQGESWHGHVTAVTVSPEYRRQQLAKKLMNLLEDISDKIDKAYFVDLFVRASNTPAIKMYEKLGYIIYRRVLRYYSGEEDGLDMRKALSRDVEKKSVIPLKRPITPDELEYD”, “failed”.

Take “MTTKAVLISSGVATVALLLKLSVPVAVDFSVSRAPILWSSLLSWLKPPYLYVVTNGIIITIVASSKYYRSHHDRDEEDEIVVYGGGGYKIQTEEPIVNQHQASPRILEVKDLDTGAHFGFVVANLEAEELESEAVTAVVFDDEEEEKKIIDSAATAEDEIEEELKSVIMVENSDLVESDVIPPPMMIESENLPPIEKPLVTSRFGHRKLMKASQEGGRALRVTKPKKNETLENTWKMITEGKSTPLTRQLYRRSDTFGRGDSGGVDGEVKPVYKKSDTFRDRTNYYQLAETAKVRKEPSLSQEELNRRVEAFIKKFNEEMKLQRMESLRQYKEITSRGV”: the protein production result is “failed”. The value for “MTTKPRLCTALLTLAIAVSASAPVLAQSMAGGSAKNRYANQTKLDPYPPEGGWQGLANLLEAAKPGVDTRLDPTPSQITDRIEELLNRGANEEALSLIERREAAIKGQRGADVQLMFQHARALAALGRADEAIAVYSDMTTQFPELPEPWNNLAALYASRGELERAQDSLQMALRANPDYAAARANLGDIQLMMALRTYRQEEARGVPGMKARVEEIESLLKDKQPK” was “failed”.
